Test results from patent publication US11732043.
Where two headings read alike, the source gives them in different places.

Legend:
[1] = target: human LAG-3 (huLAG-3), full length, expressed on the cell surface (human) (UniProt P18627); test: method of determination not stated; legend of the FACS binding figure (293FF-LAG-3 cells, activated human T-cells)
[2] = target: human LAG-3 (huLAG-3), full length, expressed on the cell surface (human) (UniProt P18627)
[3] = target: human LAG-3 (huLAG-3), full length, expressed on the cell surface (human) (UniProt P18627); test: FACS titration on activated human T cells, detection with PE-labelled anti-IgG F(ab')2 [right panel Activated T cells]
[4] = target: human LAG-3 (huLAG-3), full length, expressed on the cell surface (human) (UniProt P18627); remark: listed apart in the source

Chain of human LAG-3 (huLAG-3), full length, expressed on the cell surface (human) (P18627 23-525): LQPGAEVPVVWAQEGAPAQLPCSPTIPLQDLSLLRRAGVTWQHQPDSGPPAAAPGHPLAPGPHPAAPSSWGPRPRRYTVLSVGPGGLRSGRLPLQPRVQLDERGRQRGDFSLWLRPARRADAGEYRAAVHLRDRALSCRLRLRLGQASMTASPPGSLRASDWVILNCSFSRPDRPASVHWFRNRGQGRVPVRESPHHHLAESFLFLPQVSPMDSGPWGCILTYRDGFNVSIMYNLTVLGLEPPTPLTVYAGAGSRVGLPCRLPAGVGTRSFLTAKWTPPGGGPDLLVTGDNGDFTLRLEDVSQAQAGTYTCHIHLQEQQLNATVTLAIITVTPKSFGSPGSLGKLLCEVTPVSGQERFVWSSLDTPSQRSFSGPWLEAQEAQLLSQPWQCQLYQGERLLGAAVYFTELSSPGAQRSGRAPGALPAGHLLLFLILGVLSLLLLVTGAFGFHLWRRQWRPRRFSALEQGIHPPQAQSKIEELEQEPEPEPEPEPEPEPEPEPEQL

Kd [1]: 0.2 nM | EC50 (read off the curve) [2]: 0.1 µg/mL | EC50 (read off the curve) [3]: 0.04 µg/mL | EC50 (read off the curve) [4]: 0.1 µg/mL
Substance: PG7431, anti-LAG-3 antibody 25F7 produced in a human IgG1 format
